According to patent US8609370:

Tests used:
[1] = target: Leukine (commercial rhGM-CSF of Schering AG, expressed in yeast) (human) (UniProt P04141); assay: cell-based or functional assay
[2] = target: rhGM-CSF expressed in NM-F9 cells cultured with 90 mM ManNAc (optimal sialylation form of rhGM-CSF) (human) (UniProt P04141); assay: cell-based or functional assay

- stimulation of TF-1 cell proliferation (BrdU-proliferation assay), blocking at 5 µg/ml antibody [1]: 60%
- stimulation of TF-1 cell proliferation (BrdU-proliferation assay), blocking at 5 µg/ml antibody [2]: 60%
Substance: anti-human GM-CSF antibody BVD2-23 B6
